Measurements from publication PMC3351163.

Target: TetR(B) (UniProt P04483 1-207)
Assay: cytometric bead binding assay

Sequence of TetR(B) (P04483 whole entry): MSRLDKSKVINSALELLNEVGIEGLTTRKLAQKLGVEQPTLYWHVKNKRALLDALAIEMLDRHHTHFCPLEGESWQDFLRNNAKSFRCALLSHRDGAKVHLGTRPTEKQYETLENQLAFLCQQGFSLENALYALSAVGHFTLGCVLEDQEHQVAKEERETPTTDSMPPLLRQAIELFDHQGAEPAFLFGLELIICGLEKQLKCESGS

B1: 5-1.2m2 (structured_RNA)
RNA: GGAUCCAGGCAGUGUAAGGUCGAUACGGACGGAAUGUGAUGGCCUGGAUCCAAA
B1: no binding.
